Experiment [1] has as its target PIP30/FAM192A (endogenous) (human (endogenous in U2OS, HeLa, U937)) (UniProt Q9GZU8). The experiment is described as follows: co-IP.
For experiment [2], the target named is PA28γ (endogenous) (human (endogenous in U2OS, HeLa, U937)) (UniProt P61289). Nature of the experiment: co-IP.

UniProt Q9GZU8, sequence (Q9GZU8 whole entry): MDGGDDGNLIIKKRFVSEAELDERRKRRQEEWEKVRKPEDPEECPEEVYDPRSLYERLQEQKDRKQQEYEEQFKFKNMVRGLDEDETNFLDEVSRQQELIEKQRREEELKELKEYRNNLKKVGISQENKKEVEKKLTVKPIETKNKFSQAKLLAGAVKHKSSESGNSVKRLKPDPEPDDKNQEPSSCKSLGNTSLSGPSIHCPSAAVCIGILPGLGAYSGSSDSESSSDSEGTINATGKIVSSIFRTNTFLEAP

The substance “PA28γ (endogenous) (from UniProt P61289 1-254) (natural protein)” had a percent coprecipitated in experiment [1] greater than 70%. Regarding “PIP30/FAM192A (endogenous) (from UniProt Q9GZU8 1-254) (natural protein)”, the percent coprecipitated in experiment [2] is greater than 70%.
